# Residue numbers refer to the chain shown, from its start. Names may count otherwise.
# B1: ULBP2.wt rituximab-MicAbody (bispecific antibody, human IgG1, kappa)
# heavy: not shown
# light: QIVLSQSPAILSASPGEKVTMTCRASSSVSYIHWFQQKPGSSPKPWIYATSNLASGVPVRFSGSGSGTSYSLTISRVEAEDAATYYCQQWTSNPPTFGGGTKLEIKRTVAAPSVFIFPPSDEQLKSGTASVVCLLNNFYPREAKVQWKVDNALQSGNSQESVTEQDSKDSTYSLSSTLTLSKADYEKHKVYACEVTHQGLSSPVTKSFNRGECAPTSSSGGGGSEPHSLSYDITVIPKFRPGPRWCAVQGQVDEKTFLHYDCGNKTVTPVSPLGKKLNVTTAWKAQNPVLREVVDILTEQLRDIQLENYTPKEPLTLQARMSCEQKAEGHSSGSWQFSFDGQIFLLFDSEKRMWTTVHPGARKMKEKWENDKVVAMSFHYFSMGDCIGWLEDFLMGMDSTLEPS
# notes: Rituximab IgG1 with wild-type ULBP2 α1-α2 domain fused to the light chain; bivalent for the α1-α2 domain; also called ULBP2 MicAbody; ULBP2 wild-type MicAbody
# B2: rituximab-ULBP2.R MicAbody (bispecific antibody, human IgG1, kappa)
# heavy: not shown
# light: B1 light with R302W, M376T, S377L, F378L, H379W, Y380G, F381W
# notes: also called ULBP2.R rituximab-MicAbody; rituximab-MicAbody
# B3: rituximab-ULBP2.S3 MicAbody (bispecific antibody, human IgG1, kappa)
# heavy: not shown
# light: B1 light with R302W, M376T, S377K, F378L, H379Y, Y380L, F381W
# notes: also called ULBP2.S3 as a MicAbody
# B4: ULBP2.S3 α1-α2 domain, monomeric His-tagged format (ligand)
# chain: EPHSLSYDITVIPKFRPGPRWCAVQGQVDEKTFLHYDCGNKTVTPVSPLGKKLNVTTAWKAQNPVLREVVDILTEQLWDIQLENYTPKEPLTLQARMSCEQKAEGHSSGSWQFSFDGQIFLLFDSEKRMWTTVHPGARKMKEKWENDKVVATKLYLWSMGDCIGWLEDFLMGMDSTLEPS
# notes: also called ULBP2.S3 (monomeric His-tagged); not shown: His tag
# B5: rituximab-ULBP2.R80W MicAbody (bispecific antibody, human IgG1, kappa, N297A)
# heavy: QVQLQQPGAELVKPGASVKMSCKASGYTFTSYNMHWVKQTPGRGLEWIGAIYPGNGDTSYNQKFKGKATLTADKSSSTAYMQLSSLTSEDSAVYYCARSTYYGGDWYFNVWGAGTTVTVSAASTKGPSVFPLAPSSKSTSGGTAALGCLVKDYFPEPVTVSWNSGALTSGVHTFPAVLQSSGLYSLSSVVTVPSSSLGTQTYICNVNHKPSNTKVDKKVEPKSCDKTHTCPPCPAPELLGGPSVFLFPPKPKDTLMISRTPEVTCVVVAVSHEDPEVKFNWYVDGVEVHNAKTKPREEQYASTYRVVSVLTVLHQDWLNGKEYKCKVSNKALPAPIEKTISKAKGQPREPQVYTLPPSRDELTKNQVSLTCLVKGFYPSDIAVEWESNGQPENNYKTTPPVLDSDGSFFLYSKLTVDKSRWQQGNVFSCSVMHEALHNHYTQKSLSLSPGGGGSEPHSLSYDITVIPKFRPGPRWCAVQGQVDEKTFLHYDCGNKTVTPVSPLGKKLNVTTAWKAQNPVLREVVDILTEQLWDIQLENYTPKEPLTLQARMSCEQKAEGHSSGSWQFSFDGQIFLLFDSEKRMWTTVHPGARKMKEKWENDKVVAMSFHYFSMGDCIGWLEDFLMGMDSTLEPS
# light: QIVLSQSPAILSASPGEKVTMTCRASSSVSYIHWFQQKPGSSPKPWIYATSNLASGVPVRFSGSGSGTSYSLTISRVEAEDAATYYCQQWTSNPPTFGGGTKLEIKTVAAPSVFIFPPSDEQLKSGTASVVCLLNNFYPREAKVQWKVDNALQSGNSQESVTEQDSKDSTYSLSSTLTLSKADYEKHKVYACEVTHQGLSSPVTKSFNRGEC
# B6: rituximab-ULBP2.C MicAbody (bispecific antibody, human IgG1, kappa)
# heavy: not shown
# light: QIVLSQSPAILSASPGEKVTMTCRASSSVSYIHWFQQKPGSSPKPWIYATSNLASGVPVRFSGSGSGTSYSLTISRVEAEDAATYYCQQWTSNPPTFGGGTKLEIKTVAAPSVFIFPPSDEQLKSGTASVVCLLNNFYPREAKVQWKVDNALQSGNSQESVTEQDSKDSTYSLSSTLTLSKADYEKHKVYACEVTHQGLSSPVTKSFNRGECAPTSSSGGGGSEPHSLSYDITVIPKFRPGPRWCAVQGQVDEKTFLHYDCGNKTVTPVSPLGKKLNVTTAWKAQNPVLREVVDILTEQLWDIQLENYTPKEPLTLQARMSCEQKAEGHSSGSWQFSFDGQIFLLFDSEKRMWTTVHPGARKMKEKWENDKVVATILWQTSMGDCIGWLEDFLMGMDSTLEPS
# Tests used:
# [1] = molecular target: T1, Fc-NKG2D.wt (natural human NKG2D ectodomain fused to the C-terminus of human IgG1 Fc) (human); test: ELISA, Fc-NKG2D coated, MicAbody titrated from 300 nM (GraphPad Prism)
# T1 construct: also called natural Fc-NKG2D; wild-type Fc-NKG2D
# Method: (§1) The binding affinities of α1-α2 variants to the extracellular domains of natural (wild-type) NKG2D and non-natural eNKG2D proteins were analyzed using a plate-based ELISA method. […] The plates were washed three times in PBS/0.05% Tween-20 (PBS-T) at 20-22° C., and blocked with 0.5% bovine serum albumin in PBS (PBS-B) for 2 hours at 20-22° C.
# Fc-NKG2D.Y152A [2] = molecular target: T2, Fc-NKG2D.Y152A (human); test: ELISA, Fc-eNKG2D coated, MicAbody titrated from 300 nM
# T2 construct: also called NKG2D.YA; Fc-NKG2D.YA
# Method: as §1
# Fc-NKG2D.Y152A [3] = molecular target: T2, Fc-NKG2D.Y152A; test: ELISA, Fc-NKG2D coated, rituximab MicAbody titrated (FIGS. 16A and 16B)
# [4] = molecular target: T1, Fc-NKG2D.wt (natural human NKG2D …); test: as above
# [5] = molecular target: Fc-NKG2D.AF, eNKG2D5 (Y152A/Y199F) (human); test: as above
# Fc-NKG2D.Y152A [6] = molecular target: T2, Fc-NKG2D.Y152A; test: ELISA and Octet
# [7] = molecular target: T1, Fc-NKG2D.wt (natural human NKG2D …); test: ELISA, rituximab MicAbody on Fc-NKG2D (legend of FIGS. 16A and 16B)
# [8] = molecular target: T1, Fc-NKG2D.wt (natural human NKG2D …); test: titration ELISA, Fc-NKG2D coated, rituximab MicAbody titrated
# T1 sequence (chain, as listed by the source limits assumed): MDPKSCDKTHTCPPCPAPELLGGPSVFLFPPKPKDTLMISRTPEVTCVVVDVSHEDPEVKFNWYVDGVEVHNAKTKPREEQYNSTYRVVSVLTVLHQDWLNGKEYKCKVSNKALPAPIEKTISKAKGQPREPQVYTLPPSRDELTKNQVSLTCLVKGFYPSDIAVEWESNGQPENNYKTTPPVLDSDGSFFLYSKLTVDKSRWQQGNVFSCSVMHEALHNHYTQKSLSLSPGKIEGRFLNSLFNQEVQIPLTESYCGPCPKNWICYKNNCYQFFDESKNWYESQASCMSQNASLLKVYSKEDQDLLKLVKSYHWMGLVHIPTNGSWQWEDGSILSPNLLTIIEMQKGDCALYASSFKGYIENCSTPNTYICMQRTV
# T2 sequence (chain, as listed by the source Y152A Y152A limits assumed): as the sequence (chain, as listed by the source limits assumed) above, with Y312A counted along it
# Sequence of Fc-NKG2D.AF, eNKG2D5 (Y152A/Y199F) (human) (chain, as listed by the source Y152A Y199F Y152A Y199F limits assumed): as the sequence (chain, as listed by the source limits assumed) above, with Y312A, Y359F counted along it
binder,measurement,setting,value
B1,Kd,[1],1.4 nM
same,binding result,Fc-NKG2D.Y152A [2],binds
B2,binding result,Fc-NKG2D.Y152A [3],no binding
same,binding result,[4],no binding
B3,binding result,[5],no binding
same,binding result,[4],no binding
B4,binding result,Fc-NKG2D.Y152A [6],binds
B5,binding result,[7],binds
B6,binding result,[8],no binding
